# Measurements published in patent publication US20260216374.
# Tested on: Human POU5F1B (HA-tagged, overexpressed in SW480 cells)
# Chain of ZDHHC-17 palmitoyl transferase (chain, as listed by the source): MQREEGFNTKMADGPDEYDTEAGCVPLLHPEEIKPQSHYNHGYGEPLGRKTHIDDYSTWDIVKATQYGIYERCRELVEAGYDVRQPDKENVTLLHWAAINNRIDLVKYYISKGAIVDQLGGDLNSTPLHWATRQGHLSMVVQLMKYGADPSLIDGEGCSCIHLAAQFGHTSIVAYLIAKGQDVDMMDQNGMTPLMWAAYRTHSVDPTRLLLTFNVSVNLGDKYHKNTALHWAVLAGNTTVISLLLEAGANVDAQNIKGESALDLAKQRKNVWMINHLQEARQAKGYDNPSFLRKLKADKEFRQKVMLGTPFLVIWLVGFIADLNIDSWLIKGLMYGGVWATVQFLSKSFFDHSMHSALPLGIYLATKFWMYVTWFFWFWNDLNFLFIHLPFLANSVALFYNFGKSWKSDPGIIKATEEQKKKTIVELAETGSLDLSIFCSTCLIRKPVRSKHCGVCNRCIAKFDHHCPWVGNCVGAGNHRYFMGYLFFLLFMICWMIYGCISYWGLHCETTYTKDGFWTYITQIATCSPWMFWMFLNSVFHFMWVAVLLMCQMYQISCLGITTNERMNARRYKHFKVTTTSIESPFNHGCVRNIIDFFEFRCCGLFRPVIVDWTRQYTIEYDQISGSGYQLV
substance,measurement,value
ZDHHC-17 palmitoyl transferase,DRM association of POU5F1B upon ZDHHC-17 knockdown,POU5F1B dissociates from DRMs upon ZDHHC-17 knockdown
